The series concerns the target T1, phiC31 integrase (phiC31o, mammalian codon-optimized) (Streptomyces phage phiC31) (UniProt Q9T221).
T1 sequence: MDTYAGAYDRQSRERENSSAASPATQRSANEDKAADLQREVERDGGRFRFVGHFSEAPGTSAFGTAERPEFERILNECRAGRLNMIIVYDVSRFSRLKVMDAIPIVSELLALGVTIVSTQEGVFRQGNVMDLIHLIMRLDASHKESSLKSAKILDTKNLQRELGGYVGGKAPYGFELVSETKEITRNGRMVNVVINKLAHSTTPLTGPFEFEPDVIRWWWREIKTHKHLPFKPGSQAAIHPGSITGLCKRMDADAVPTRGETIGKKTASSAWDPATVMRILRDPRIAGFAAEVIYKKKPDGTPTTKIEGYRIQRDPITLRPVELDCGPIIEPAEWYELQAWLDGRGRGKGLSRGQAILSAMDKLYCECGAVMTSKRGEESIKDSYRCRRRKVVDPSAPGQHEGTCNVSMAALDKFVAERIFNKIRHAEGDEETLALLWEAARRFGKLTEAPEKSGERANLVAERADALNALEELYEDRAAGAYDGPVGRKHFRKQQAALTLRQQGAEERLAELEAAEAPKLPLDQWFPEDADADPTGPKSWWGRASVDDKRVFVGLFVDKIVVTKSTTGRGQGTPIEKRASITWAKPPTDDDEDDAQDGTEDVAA
Nature of the series: cell_activity.

Substance full-length phiC31 attB (pTA-attB) displayed an activity (% of F0 with site-specific integration) (attB plasmid pattB-pCA-GFP into H11P3NVphi, 10/64, 0/32 without integrase mRNA) of 15.6. full-length phiC31 attP (pTA-attP) showed an activity (% of F0 with site-specific integration) (H11P(NVphi), mixed background, pooled 8/102, partner attB, mouse zygote injection) of 7.8.
